How the values were obtained:
[1] = target: T1, NY-ESO-1 peptide on HLA-A*02:01 (human); experiment: killing
T1 peptide: SLLMWITQC

[2] = target: T1, NY-ESO-1 peptide on HLA-A*02:01; experiment: cytokine release

B1: 19305DP (TCR, V domains shown)
Valpha: SQQGEEDPQALSIQEGENATMNCSYKTSINNLQWYRQNSGRGLVHLILIRSNEREKHSGRLRVTLDTSKKSSSLLITASRAADTASYFCATDGGGTLTFGKGTMLLVSP
Vbeta: DAGVIQSPRHEVTEMGQEVTLRCKPISGHDYLFWYRQTMMRGLELLIYFNNNVPIDDSGMPEDRFSAKMPNASFSTLKIQPSEPRDSAVYFCASKWGGTEAFFGQGTRLTVV
Question: Does B1 bind [1]?
Answer: Result: recognises

B2: JD (TCR, V domains shown)
Valpha: QKEVEQNSGPLSVPEGAIASLNCTYSDRGSQSFFWYRQYSGKSPELIMFIYSNGDKEDGRFTAQLNKASQYVSLLIRDSQPSDSATYLCAVGATNKLIFGTGTLLAVQP
Vbeta: EAGVTQFPSHSVIEKGQTVTLRCDPISGHDNLYWYRRVMGKEIKFLLHFVKESKQDESGMPNNRFLAERTGGTYSTLKVQPAELEDSGVYFCASSQAYGTEAFFGQGTRLTVV
Question: Does B2 bind [2]?
Answer: Result: recognises

B3: AL (TCR, V domains shown)
Valpha: QKEVEQNSGPLSVPEGAIASLNCTYSDRGSQSFFWYRQYSGKSPELIMSIYSNGDKEDGRFTAQLNKASQYVSLLIRDSQPSDSATYLCAVGGLTSSNTGKLIFGQGTTLQVKP
Vbeta: DVKVTQSSRYLVKRTGEKVFLECVQDMDHENMFWYRQDPGLGLRLIYFSYDVKMKEKGDIPEGYSVSREKKERFSLILESASTNQTSMYLCASSNQIYGYTFGSGTRLTVV
Question: Does B3 bind [1]?
Answer: Result: recognises

— patent US20190275081A1 (published 2019)
